Results published in patent US20140087995A1 (published 2014).
Numbered stars: 1 amine (or outer) side, 2 acyl side, 3 side chain; on linkers, the order of the positions; unused ones are H or OH. Bridge positions count the residues as written; N and C are the ends. Side chains are listed from the residue outwards. Ends that are not written are not given here. * marks the point of attachment. C20 diacid = O=C(O)CCCCCCCCCCCCCCCCCCC(=O)*; γGlu = O=C(O)[C@H](CCC(=O)[*:2])N[*:1]

T1: human calcitonin receptor (human, UniProt P30988 25-474)
T1 construct: whole, on cells; Used as cell membranes; also called hCTR; hCT
T1 sequence (looked up): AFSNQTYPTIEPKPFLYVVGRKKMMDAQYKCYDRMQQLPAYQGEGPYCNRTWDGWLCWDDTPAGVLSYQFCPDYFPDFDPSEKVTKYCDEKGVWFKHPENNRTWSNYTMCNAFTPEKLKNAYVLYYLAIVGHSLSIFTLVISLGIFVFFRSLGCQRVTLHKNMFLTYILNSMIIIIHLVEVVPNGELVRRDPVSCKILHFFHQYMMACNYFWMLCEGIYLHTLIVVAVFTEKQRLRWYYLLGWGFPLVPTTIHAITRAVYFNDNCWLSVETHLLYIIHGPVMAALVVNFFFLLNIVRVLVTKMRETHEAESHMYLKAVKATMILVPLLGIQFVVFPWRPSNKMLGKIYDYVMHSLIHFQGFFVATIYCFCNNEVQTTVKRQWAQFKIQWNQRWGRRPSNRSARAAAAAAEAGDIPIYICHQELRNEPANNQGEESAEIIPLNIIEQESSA


Experiments:
[1] = molecular target: T1, human calcitonin receptor; assay: ratio of hCTR IC50 to hAmylin-R IC50 (reference: human amylin receptor)
How it was run: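 Competition binding by SPA uses membrane preparations (35 ng/μL final) in pH 7.4 Hepes buffer with 1 mM CaCl2 and 5 mM MgCl₂. Incubation lasts 120 min at 25° C, and IC₅₀ comes from one-site fitting.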

[2] = molecular target: T1, human calcitonin receptor; assay: SPA competition on BHK cell membranes, 125I-calcitonin as radioligand (Assay VII)
How it was run: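 BHK hCTR membranes 35 ng/μL + SPA beads 0.05 mg/well; buffer 50 mM Hepes pH 7.4, 1 mM CaCl2, 5 mM MgCl₂, 0.1% OA, 0.02% Tween20. 120 min, 25° C., shaking. Scintillation count; IC50 by one-site binding competition.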

Binder	Ratio hCT/hAmylin binding [1]	IC50 [2]
K([γGlu-C20 diacid])CNTATCATQRLANFLRHSSPNFGAIPSSTNVGHNTY-NH2 (disulfide 2-7; N-terminus assumed; SMILES CC[C@H](C)[C@H](NC(=O)[C@H](C)NC(=O)CNC(=O)[C@H](Cc1ccccc1)NC(=O)[C@H](CC(N)=O)NC(=O)[C@@H]1CCCN1C(=O)[C@H](CO)NC(=O)[C@H](CO)NC(=O)[C@H](Cc1c[nH]cn1)NC(=O)[C@H](CCCNC(=N)N)NC(=O)[C@H](CC(C)C)NC(=O)[C@H](Cc1ccccc1)NC(=O)[C@H](CC(N)=O)NC(=O)[C@H](C)NC(=O)[C@H](CC(C)C)NC(=O)[C@H](CCCNC(=N)N)NC(=O)[C@H](CCC(N)=O)NC(=O)[C@@H](NC(=O)[C@H](C)NC(=O)[C@@H]1CSSC[C@H](NC(=O)[C@@H](N)CCCCNC(=O)CC[C@H](NC(=O)CCCCCCCCCCCCCCCCCCC(=O)O)C(=O)O)C(=O)N[C@@H](CC(N)=O)C(=O)N[C@@H]([C@@H](C)O)C(=O)N[C@@H](C)C(=O)N[C@@H]([C@@H](C)O)C(=O)N1)[C@@H](C)O)C(=O)N1CCC[C@H]1C(=O)N[C@@H](CO)C(=O)N[C@@H](CO)C(=O)N[C@H](C(=O)N[C@@H](CC(N)=O)C(=O)N[C@H](C(=O)NCC(=O)N[C@@H](Cc1c[nH]cn1)C(=O)N[C@@H](CC(N)=O)C(=O)N[C@H](C(=O)N[C@@H](Cc1ccc(O)cc1)C(N)=O)[C@@H](C)O)C(C)C)[C@@H](C)O, also called compound 77) [N^ε1-[(4S)-4-carboxy-4-(19-carboxynonadecanoylamino)butanoyl]-[Arg17,Pro21,Pro27,His34]-h-amylin]	118	50.7 nM
K([γGlu-γGlu-C20 diacid])CNTATCATQRLAEFLRHSSPNFGAIPSSTNVGHNTY-NH2 (disulfide 2-7; N-terminus assumed; SMILES CC[C@H](C)[C@H](NC(=O)[C@H](C)NC(=O)CNC(=O)[C@H](Cc1ccccc1)NC(=O)[C@H](CC(N)=O)NC(=O)[C@@H]1CCCN1C(=O)[C@H](CO)NC(=O)[C@H](CO)NC(=O)[C@H](Cc1c[nH]cn1)NC(=O)[C@H](CCCNC(=N)N)NC(=O)[C@H](CC(C)C)NC(=O)[C@H](Cc1ccccc1)NC(=O)[C@H](CCC(=O)O)NC(=O)[C@H](C)NC(=O)[C@H](CC(C)C)NC(=O)[C@H](CCCNC(=N)N)NC(=O)[C@H](CCC(N)=O)NC(=O)[C@@H](NC(=O)[C@H](C)NC(=O)[C@@H]1CSSC[C@H](NC(=O)[C@@H](N)CCCCNC(=O)CC[C@H](NC(=O)CC[C@H](NC(=O)CCCCCCCCCCCCCCCCCCC(=O)O)C(=O)O)C(=O)O)C(=O)N[C@@H](CC(N)=O)C(=O)N[C@@H]([C@@H](C)O)C(=O)N[C@@H](C)C(=O)N[C@@H]([C@@H](C)O)C(=O)N1)[C@@H](C)O)C(=O)N1CCC[C@H]1C(=O)N[C@@H](CO)C(=O)N[C@@H](CO)C(=O)N[C@H](C(=O)N[C@@H](CC(N)=O)C(=O)N[C@H](C(=O)NCC(=O)N[C@@H](Cc1c[nH]cn1)C(=O)N[C@@H](CC(N)=O)C(=O)N[C@H](C(=O)N[C@@H](Cc1ccc(O)cc1)C(N)=O)[C@@H](C)O)C(C)C)[C@@H](C)O, also called compound 87)	35.6	22.5 nM
K([γGlu-γGlu-C20 diacid])CNTATCATQRLAEFLRHSSPNFGAIPSSTNVGPRTY-NH2 (disulfide 2-7; N-terminus assumed; SMILES CC[C@H](C)[C@H](NC(=O)[C@H](C)NC(=O)CNC(=O)[C@H](Cc1ccccc1)NC(=O)[C@H](CC(N)=O)NC(=O)[C@@H]1CCCN1C(=O)[C@H](CO)NC(=O)[C@H](CO)NC(=O)[C@H](Cc1c[nH]cn1)NC(=O)[C@H](CCCNC(=N)N)NC(=O)[C@H](CC(C)C)NC(=O)[C@H](Cc1ccccc1)NC(=O)[C@H](CCC(=O)O)NC(=O)[C@H](C)NC(=O)[C@H](CC(C)C)NC(=O)[C@H](CCCNC(=N)N)NC(=O)[C@H](CCC(N)=O)NC(=O)[C@@H](NC(=O)[C@H](C)NC(=O)[C@@H]1CSSC[C@H](NC(=O)[C@@H](N)CCCCNC(=O)CC[C@H](NC(=O)CC[C@H](NC(=O)CCCCCCCCCCCCCCCCCCC(=O)O)C(=O)O)C(=O)O)C(=O)N[C@@H](CC(N)=O)C(=O)N[C@@H]([C@@H](C)O)C(=O)N[C@@H](C)C(=O)N[C@@H]([C@@H](C)O)C(=O)N1)[C@@H](C)O)C(=O)N1CCC[C@H]1C(=O)N[C@@H](CO)C(=O)N[C@@H](CO)C(=O)N[C@H](C(=O)N[C@@H](CC(N)=O)C(=O)N[C@H](C(=O)NCC(=O)N1CCC[C@H]1C(=O)N[C@@H](CCCNC(=N)N)C(=O)N[C@H](C(=O)N[C@@H](Cc1ccc(O)cc1)C(N)=O)[C@@H](C)O)C(C)C)[C@@H](C)O, also called compound 110)	53.6	17.5 nM
K([γGlu-γGlu-C20 diacid])CNTATCATQRLAHFLRHSSPNFGAIPSSTNVGSNTY-NH2 (disulfide 2-7; N-terminus assumed; SMILES CC[C@H](C)[C@H](NC(=O)[C@H](C)NC(=O)CNC(=O)[C@H](Cc1ccccc1)NC(=O)[C@H](CC(N)=O)NC(=O)[C@@H]1CCCN1C(=O)[C@H](CO)NC(=O)[C@H](CO)NC(=O)[C@H](Cc1c[nH]cn1)NC(=O)[C@H](CCCNC(=N)N)NC(=O)[C@H](CC(C)C)NC(=O)[C@H](Cc1ccccc1)NC(=O)[C@H](Cc1c[nH]cn1)NC(=O)[C@H](C)NC(=O)[C@H](CC(C)C)NC(=O)[C@H](CCCNC(=N)N)NC(=O)[C@H](CCC(N)=O)NC(=O)[C@@H](NC(=O)[C@H](C)NC(=O)[C@@H]1CSSC[C@H](NC(=O)[C@@H](N)CCCCNC(=O)CC[C@H](NC(=O)CC[C@H](NC(=O)CCCCCCCCCCCCCCCCCCC(=O)O)C(=O)O)C(=O)O)C(=O)N[C@@H](CC(N)=O)C(=O)N[C@@H]([C@@H](C)O)C(=O)N[C@@H](C)C(=O)N[C@@H]([C@@H](C)O)C(=O)N1)[C@@H](C)O)C(=O)N1CCC[C@H]1C(=O)N[C@@H](CO)C(=O)N[C@@H](CO)C(=O)N[C@H](C(=O)N[C@@H](CC(N)=O)C(=O)N[C@H](C(=O)NCC(=O)N[C@@H](CO)C(=O)N[C@@H](CC(N)=O)C(=O)N[C@H](C(=O)N[C@@H](Cc1ccc(O)cc1)C(N)=O)[C@@H](C)O)C(C)C)[C@@H](C)O, also called compound 92)	145	26 nM

Stronger by IC50 [2], values ahead:

Ratio hCT/hAmylin binding [1]	IC50 [2]	Binder
51.6	4.63 nM	K([γGlu-C20 diacid])CNTATCATQRLAHFLRHSSPNFGAIPSSTNVGPNTY-NH2 (disulfide 2-7; N-terminus assumed; SMILES CC[C@H](C)[C@H](NC(=O)[C@H](C)NC(=O)CNC(=O)[C@H](Cc1ccccc1)NC(=O)[C@H](CC(N)=O)NC(=O)[C@@H]1CCCN1C(=O)[C@H](CO)NC(=O)[C@H](CO)NC(=O)[C@H](Cc1c[nH]cn1)NC(=O)[C@H](CCCNC(=N)N)NC(=O)[C@H](CC(C)C)NC(=O)[C@H](Cc1ccccc1)NC(=O)[C@H](Cc1c[nH]cn1)NC(=O)[C@H](C)NC(=O)[C@H](CC(C)C)NC(=O)[C@H](CCCNC(=N)N)NC(=O)[C@H](CCC(N)=O)NC(=O)[C@@H](NC(=O)[C@H](C)NC(=O)[C@@H]1CSSC[C@H](NC(=O)[C@@H](N)CCCCNC(=O)CC[C@H](NC(=O)CCCCCCCCCCCCCCCCCCC(=O)O)C(=O)O)C(=O)N[C@@H](CC(N)=O)C(=O)N[C@@H]([C@@H](C)O)C(=O)N[C@@H](C)C(=O)N[C@@H]([C@@H](C)O)C(=O)N1)[C@@H](C)O)C(=O)N1CCC[C@H]1C(=O)N[C@@H](CO)C(=O)N[C@@H](CO)C(=O)N[C@H](C(=O)N[C@@H](CC(N)=O)C(=O)N[C@H](C(=O)NCC(=O)N1CCC[C@H]1C(=O)N[C@@H](CC(N)=O)C(=O)N[C@H](C(=O)N[C@@H](Cc1ccc(O)cc1)C(N)=O)[C@@H](C)O)C(C)C)[C@@H](C)O, also called compound 67)
17.6	2.13 nM	K([γGlu-γGlu-C20 diacid])CNTATCATQRLAEFLRHSSPNFGAIPSSTNVGPETY-NH2 (disulfide 2-7; N-terminus assumed; SMILES CC[C@H](C)[C@H](NC(=O)[C@H](C)NC(=O)CNC(=O)[C@H](Cc1ccccc1)NC(=O)[C@H](CC(N)=O)NC(=O)[C@@H]1CCCN1C(=O)[C@H](CO)NC(=O)[C@H](CO)NC(=O)[C@H](Cc1c[nH]cn1)NC(=O)[C@H](CCCNC(=N)N)NC(=O)[C@H](CC(C)C)NC(=O)[C@H](Cc1ccccc1)NC(=O)[C@H](CCC(=O)O)NC(=O)[C@H](C)NC(=O)[C@H](CC(C)C)NC(=O)[C@H](CCCNC(=N)N)NC(=O)[C@H](CCC(N)=O)NC(=O)[C@@H](NC(=O)[C@H](C)NC(=O)[C@@H]1CSSC[C@H](NC(=O)[C@@H](N)CCCCNC(=O)CC[C@H](NC(=O)CC[C@H](NC(=O)CCCCCCCCCCCCCCCCCCC(=O)O)C(=O)O)C(=O)O)C(=O)N[C@@H](CC(N)=O)C(=O)N[C@@H]([C@@H](C)O)C(=O)N[C@@H](C)C(=O)N[C@@H]([C@@H](C)O)C(=O)N1)[C@@H](C)O)C(=O)N1CCC[C@H]1C(=O)N[C@@H](CO)C(=O)N[C@@H](CO)C(=O)N[C@H](C(=O)N[C@@H](CC(N)=O)C(=O)N[C@H](C(=O)NCC(=O)N1CCC[C@H]1C(=O)N[C@@H](CCC(=O)O)C(=O)N[C@H](C(=O)N[C@@H](Cc1ccc(O)cc1)C(N)=O)[C@@H](C)O)C(C)C)[C@@H](C)O)
